B1: PKD2L1 (parent)
chain: TLARCAKDILGFAVMFFIVFFAYA
B2: KCNAB2 (parent)
chain: YVDVVFANRPDPNTPMEETVRAMT
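Further: lentivirally expressed fusions sorted by FACS into six bins by GFP to DsRed ratio, PSI derived from sequencing read proportions per bin multiplied by bin number.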

In one data set the parent is B1. Nature of the data set: protein stability index of a GFP-peptide fusion (GPS, HEK-293T) (PSI 1-6); higher = more stable. The settings on record: c terminus: a fixed tail appended.
TLYRCAKDILGFAVMFFIVFFAYA [A3Y]: the protein stability index is 4.87.

Consider TLLRCAKDILGFAVMFFIVFFAYA [A3L], for which the protein stability index came to 1.75.

TLHRCAKDILGFAVMFFIVFFAYA [A3H]: the protein stability index came out at 2.4.

TLNRCAKDILGFAVMFFIVFFAYA [A3N]: the protein stability index amounted to 1.53.

Take TLTRCAKDILGFAVMFFIVFFAYA [A3T]: the protein stability index stood at 3.62.

Take TLQRCAKDILGFAVMFFIVFFAYA [A3Q]: the protein stability index is 2.7.

TLDRCAKDILGFAVMFFIVFFAYA [A3D]: the protein stability index came to 2.56.

Regarding TLERCAKDILGFAVMFFIVFFAYA [A3E], the protein stability index is 3.11.

For TLVRCAKDILGFAVMFFIVFFAYA [A3V], the protein stability index worked out at 1.94.

Turning to TLCRCAKDILGFAVMFFIVFFAYA [A3C], the protein stability index is 2.83.

Regarding TLRRCAKDILGFAVMFFIVFFAYA [A3R], the protein stability index was 1.81.

With TLGRCAKDILGFAVMFFIVFFAYA [A3G], the protein stability index is 1.71.

Turning to TLKRCAKDILGFAVMFFIVFFAYA [A3K], the protein stability index is 2.74.

As for TLIRCAKDILGFAVMFFIVFFAYA [A3I], the protein stability index is 4.3.

Regarding TLPRCAKDILGFAVMFFIVFFAYA [A3P], the protein stability index was 2.64.

On to TLWRCAKDILGFAVMFFIVFFAYA [A3W], for which the protein stability index turned out to be 1.87.

As for ALARCAKDILGFAVMFFIVFFAYA [T1A], the protein stability index is 2.36.

As to NLARCAKDILGFAVMFFIVFFAYA [T1N], the protein stability index was determined as 2.67.

Take PLARCAKDILGFAVMFFIVFFAYA [T1P]: the protein stability index came to 2.03.

As to RLARCAKDILGFAVMFFIVFFAYA [T1R], the protein stability index stood at 1.72.

Consider HLARCAKDILGFAVMFFIVFFAYA [T1H], for which the protein stability index was determined as 2.29.

As for CLARCAKDILGFAVMFFIVFFAYA [T1C], the protein stability index was 2.98.

Turning to ILARCAKDILGFAVMFFIVFFAYA [T1I], the protein stability index stood at 2.

For the variant DLARCAKDILGFAVMFFIVFFAYA [T1D], the protein stability index stood at 2.96.

In the case of VLARCAKDILGFAVMFFIVFFAYA [T1V], the protein stability index was determined as 2.81.

As for SLARCAKDILGFAVMFFIVFFAYA [T1S], the protein stability index was found to be 2.19.

On to MLARCAKDILGFAVMFFIVFFAYA [T1M], for which the protein stability index is 4.2.

Turning to KLARCAKDILGFAVMFFIVFFAYA [T1K], the protein stability index stood at 3.97.

As for FLARCAKDILGFAVMFFIVFFAYA [T1F], the protein stability index turned out to be 3.18.

On to LLARCAKDILGFAVMFFIVFFAYA [T1L], for which the protein stability index turned out to be 2.

In the case of WLARCAKDILGFAVMFFIVFFAYA [T1W], the protein stability index worked out at 1.62.

Consider TSARCAKDILGFAVMFFIVFFAYA [L2S], for which the protein stability index came out at 2.73.

For the variant TAARCAKDILGFAVMFFIVFFAYA [L2A], the protein stability index was 3.81.

With TWARCAKDILGFAVMFFIVFFAYA [L2W], the protein stability index is 1.67.

With TKARCAKDILGFAVMFFIVFFAYA [L2K], the protein stability index is 1.84.

On to TRARCAKDILGFAVMFFIVFFAYA [L2R], for which the protein stability index came out at 3.68.

Take THARCAKDILGFAVMFFIVFFAYA [L2H]: the protein stability index amounted to 2.35.

As to TEARCAKDILGFAVMFFIVFFAYA [L2E], the protein stability index amounted to 2.8.

Take TPARCAKDILGFAVMFFIVFFAYA [L2P]: the protein stability index stood at 3.29.

Take TGARCAKDILGFAVMFFIVFFAYA [L2G]: the protein stability index was found to be 3.03.

Consider TYARCAKDILGFAVMFFIVFFAYA [L2Y], for which the protein stability index is 2.51.

On to TQARCAKDILGFAVMFFIVFFAYA [L2Q], for which the protein stability index was determined as 3.4.

TVARCAKDILGFAVMFFIVFFAYA [L2V]: the protein stability index was 1.24.

Turning to TCARCAKDILGFAVMFFIVFFAYA [L2C], the protein stability index was found to be 3.44.

Take TDARCAKDILGFAVMFFIVFFAYA [L2D]: the protein stability index was 3.71.

With TTARCAKDILGFAVMFFIVFFAYA [L2T], the protein stability index stood at 4.12.

Consider TMARCAKDILGFAVMFFIVFFAYA [L2M], for which the protein stability index is 3.8.

Turning to TNARCAKDILGFAVMFFIVFFAYA [L2N], the protein stability index is 2.5.

TLARCFKDILGFAVMFFIVFFAYA [A6F]: the protein stability index is 2.64.

As for TLARCEKDILGFAVMFFIVFFAYA [A6E], the protein stability index turned out to be 3.58.

On to TLARCGKDILGFAVMFFIVFFAYA [A6G], for which the protein stability index stood at 1.59.

As to TLARCCKDILGFAVMFFIVFFAYA [A6C], the protein stability index amounted to 2.87.

As to TLARCHKDILGFAVMFFIVFFAYA [A6H], the protein stability index was found to be 2.59.

For TLARKAKDILGFAVMFFIVFFAYA [C5K], the protein stability index came to 2.48.

For the variant TLARMAKDILGFAVMFFIVFFAYA [C5M], the protein stability index is 3.55.

Turning to TLARHAKDILGFAVMFFIVFFAYA [C5H], the protein stability index stood at 1.6.

Take TLARPAKDILGFAVMFFIVFFAYA [C5P]: the protein stability index is 1.71.

In the case of TLARDAKDILGFAVMFFIVFFAYA [C5D], the protein stability index was 2.61.

As to TLARNAKDILGFAVMFFIVFFAYA [C5N], the protein stability index was 1.9.

As to TLARGAKDILGFAVMFFIVFFAYA [C5G], the protein stability index amounted to 2.59.

Turning to TLARYAKDILGFAVMFFIVFFAYA [C5Y], the protein stability index was found to be 2.22.

As to TLARVAKDILGFAVMFFIVFFAYA [C5V], the protein stability index came to 2.5.

Turning to TLARFAKDILGFAVMFFIVFFAYA [C5F], the protein stability index is 4.37.

As for TLARQAKDILGFAVMFFIVFFAYA [C5Q], the protein stability index was 2.29.

Turning to TLARLAKDILGFAVMFFIVFFAYA [C5L], the protein stability index turned out to be 2.78.

TLARRAKDILGFAVMFFIVFFAYA [C5R]: the protein stability index is 2.01.

TLARSAKDILGFAVMFFIVFFAYA [C5S]: the protein stability index was found to be 2.27.

Turning to TLARAAKDILGFAVMFFIVFFAYA [C5A], the protein stability index worked out at 2.49.

Take TLAREAKDILGFAVMFFIVFFAYA [C5E]: the protein stability index turned out to be 2.09.

TLARIAKDILGFAVMFFIVFFAYA [C5I]: the protein stability index was 3.

In the case of TLARTAKDILGFAVMFFIVFFAYA [C5T], the protein stability index stood at 4.06.

As to TLAPCAKDILGFAVMFFIVFFAYA [R4P], the protein stability index amounted to 2.65.

As to TLAACAKDILGFAVMFFIVFFAYA [R4A], the protein stability index came out at 2.72.

With TLALCAKDILGFAVMFFIVFFAYA [R4L], the protein stability index was found to be 3.07.

Consider TLAWCAKDILGFAVMFFIVFFAYA [R4W], for which the protein stability index worked out at 3.31.

Consider TLAKCAKDILGFAVMFFIVFFAYA [R4K], for which the protein stability index is 2.6.

Regarding TLAICAKDILGFAVMFFIVFFAYA [R4I], the protein stability index is 2.64.

As for TLAYCAKDILGFAVMFFIVFFAYA [R4Y], the protein stability index is 3.28.

TLAQCAKDILGFAVMFFIVFFAYA [R4Q]: the protein stability index amounted to 2.37.

TLAGCAKDILGFAVMFFIVFFAYA [R4G]: the protein stability index was found to be 3.84.

As to TLAVCAKDILGFAVMFFIVFFAYA [R4V], the protein stability index was found to be 4.36.

For the variant TLAFCAKDILGFAVMFFIVFFAYA [R4F], the protein stability index amounted to 2.68.

Turning to TLACCAKDILGFAVMFFIVFFAYA [R4C], the protein stability index worked out at 2.28.

As for TLANCAKDILGFAVMFFIVFFAYA [R4N], the protein stability index came out at 2.79.

Another data set covers variants of B2. The description is as above. The following applies: c terminus: a fixed tail appended.
YVDVVFANRPDPNTPMEETVRAMR [T24R]: the protein stability index was found to be 1.78.

Consider YVDVVFANRPDPNTPMEETVRAMQ [T24Q], for which the protein stability index came out at 2.09.

With YVDVVFANRPDPNTPMEETVRAMY [T24Y], the protein stability index worked out at 2.46.

With YVDVVFANRPDPNTPMEETVRAMN [T24N], the protein stability index is 1.5.

With YVDVVFANRPDPNTPMEETVRAML [T24L], the protein stability index came to 1.8.

As to YVDVVFANRPDPNTPMEETVRAMV [T24V], the protein stability index amounted to 1.47.

Regarding YVDVVFANRPDPNTPMEETVRAMS [T24S], the protein stability index was 1.88.

For the variant YVDVVFANRPDPNTPMEETVRAMM [T24M], the protein stability index worked out at 2.18.

In the case of YVDVVFANRPDPNTPMEETVRAMW [T24W], the protein stability index came to 2.72.

Consider YVDVVFANRPDPNTPMEETVRAMP [T24P], for which the protein stability index came out at 2.24.

(Values after the supplement of paper PMC10567573.)
